Results published in publication PMC2132652 (The Journal of Cell Biology, 1997).

Target: the molecule itself
Test: cross-linking

| Protein | stoichiometry N |
| --- | --- |
| furin-HA (mouse furin tagged with the HA epitope), expressed stably in RBL cells (enzyme, UniProt P23188 108-793, looked up) DVYQEPTDPKFPQQWYLSGVTQRDLNVKEAWAQGFTGHGIVVSILDDGIEKNHPDLAGNYDPGASFDVNDQDPDPQPRYTQMNDNRHGTRCAGEVAAVANNGVCGVGVAYNARIGGVRMLDGEVTDAVEARSLGLNPNHIHIYSASWGPEDDGKTVDGPARLAEEAFFRGVSQGRGGLGSIFVWASGNGGREHDSCNCDGYTNSIYTLSISSATQFGNVPWYSEACSSTLATTYSSGNQNEKQIVTTDLRQKCTESHTGTSASAPLAAGIIALTLEANKNLTWRDMQHLVVQTSKPAHLNADDWATNGVGRKVSHSYGYGLLDAGAMVALAQNWTTVAPQRKCIVEILVEPKDIGKRLEVRKAVTACLGEPNHITRLEHVQARLTLSYNRRGDLAIHLISPMGTRSTLLAARPHDYSADGFNDWAFMTTHSWDEDPAGEWVLEIENTSEANNYGTLTKFTLVLYGTAPEGLSTPPESSGCKTLTSSQACVVCEEGYSLHQKSCVQHCPPGFIPQVLDTHYSTENDVEIIRASVCTPCHASCATCQGPAPTDCLSCPSHASLDPVEQTCSRQSQSSRESRPQQQPPALRPEVEMEPRLQAGLASHLPEVLAGLSCLIIVLIFGIVFLFLHRCSGFSFRGVKVYTMDRGLISYKGLPPEAWQEECPSDSEEDEGRGERTAFIKDQSAL | 2 |
| furin-FLAG (mouse furin tagged with the FLAG epitope), expressed stably in RBL cells (enzyme) DVYQEPTDPKFPQQWYLSGVTQRDLNVKEAWAQGFTGHGIVVSILDDGIEKNHPDLAGNYDPGASFDVNDQDPDPQPRYTQMNDNRHGTRCAGEVAAVANNGVCGVGVAYNARIGGVRMLDGEVTDAVEARSLGLNPNHIHIYSASWGPEDDGKTVDGPARLAEEAFFRGVSQGRGGLGSIFVWASGNGGREHDSCNCDGYTNSIYTLSISSATQFGNVPWYSEACSSTLATTYSSGNQNEKQIVTTDLRQKCTESHTGTSASAPLAAGIIALTLEANKNLTWRDMQHLVVQTSKPAHLNADDWATNGVGRKVSHSYGYGLLDAGAMVALAQNWTTVAPQRKCIVEILVEPKDIGKRLEVRKAVTACLGEPNHITRLEHVQARLTLSYNRRGDLAIHLISPMGTRSTLLAARPHDYSADGFNDWAFMTTHSWDEDPAGEWVLEIENTSEANNYGTLTKFTLVLYGTAPEGLSTPPESSGCKTLTSSQACVVCEEGYSLHQKSCVQHCPPGFIPQVLDTHYSTENDVEIIRASVCTPCHASCATCQGPAPTDCLSCPSHASLDPVEQTCSRQSQSSRESRPQQQPPALRPEVEMEPRLQAGLASHLPEVLAGLSCLIIVLIFGIVFLFLHRCSGFSFRGVKVYTMDRGLISYKGLPPEAWQEECPSDSEEDEGRGERTAFIKDQSAL | 2 |
